Experimental data from the DeepSol protein solubility set.

Experiment: soluble on expression in E. coli; label from the status in PepcDB or PDB records

Sequence	soluble on expression in E. coli
HHMSAIKPDMKINLRMEGNVNGHHFVIDGDGTGKPFEGKQSMDLEVKEGGPLPFAFDILTTAFHYGNRVFAEYPDHIQDYFKQSFPKGYSWERSLTFEDGGICIARNDITMEGDTFYNKVRFHGVNFPANGPVMQKKTLKWEPSTEKMYVRDGVLTGDITMALLLEGNAHYRCDSRTTYKAKEKGVKLPGYHLVDHCIEILSHDKDYNKVKLYEHAVAHSGLPDNARR	soluble
MSLKTLLPTSTAGSLPKPSWLAQPEKLWSPWKLQDEELIEGKRDALRLSLNDQQQAGIDIVSDGEQTRQHFVTTFIEHLSGVDFEKRETVRIRNRYDASVPTVVGAVSREKPVFVEDAKFLRQQTRQPIKWALPGPMTMIDTLYDSHYKSREKLAWEFAKILNQEARELEAAGVDIIQFDEPAFNVFFDEVNDWGVATLEKAIEGLKCETAVHICYGYGIKANTDWKKTLGSEWRQYEEAFPKLQKSNIDLISLECHNSRVPMDLIELIRGKKVMVGAIDVATSAIETPEEVADTLRKALRFVDADKLYPCTNCGMAPLSRQVARSKLNALGAGAEIIRRELSVEGHHHHHH	soluble
MTGILDSVNQRTQLVGQNRLELLTFRLMGRQRYGINVFKVKEVLQCPKLTSMPNLHPLVKGIAHIRGHTVSVIDLSLAIGGRPTTDIDKCFVVIAEFNRTIQAFLVSSVERIINMHWEAILPPPDGAGKAHYLTAVTNIDNELVEILDVEKILAEIAPVDETMDSTIGEEIAQAEQEKPIVR	not soluble
MQTDIHDEPVNLGFGVQFEPDDLYRLRSQFLPLGKIGGKPSWLNPKNLPKSADLLCNVCEKPLCFLMQVSANGGINDPPHAFHRSLFLFVCRNPSCSRTNDAANLKAFRCQLPRANDYYSFDGPMDPDLDGDVADPRAPADGPGLCRICGCSAAKKCAKCQVARYCSQAHQVIDWPAHKLECAKAATDGSITDEPKNPRNAFCFKEFGVEIDQEYMPANLFDGLSDDEGDEEEEEGNDEDETEEEKKARIREFEKFVKENKGKNADMTKEDLDEATAEQPKDIDFDKFNRLVNLQPDQIIRYKRYGQPLRATGLSELPEVVEPCELCGAPRRFEMQLMPHLLSLIDVDAIGQSIDWASVYVYTCSASCQIADDGYAKEFVAKQDFL	not soluble
MNSPNILLDSFKIALVKKDSKQAFSLIERLSLEQIKSLDLDALLSLKEMIAQSIELLEKEKEELQLQMHKAKKIQKFLS	not soluble
MSHFFADHDAPLSMLSVKTEYFPQLTDKEQKYAHFMSKASHAGSRVVMRQVSHESEPIFDLILAIHSKLNGKYPEDDITQKQQTGLYLEYVSQFLSNLGNFKSFGDTKFIPRCEVKFFKQLLELAKINPSSSPLTLSPVDVNHEFTSHHLFSTINELIDIGIYHVEEKAALLGFPSQGYTSAYYLGLPVTPEDMALLKEQLFAELAILPENTRINKVGENSFQIWVASENVKNQITETYPSGQITLSNAVTKVEFIFGDHSREMRLVASYLKEAQKFAANDTQKAMLQEYINHFVTGSSQAHKEAQKLWVKDISPVIETNIGFIETYREPSGIIGEFESLVAIQNKERTAKFSSLVNNAEEFISLLPWSKDYEKPIFNPPDFTSLEVLTFTGSGIPAGINIPNYDDVRLKIGFKNVSLGNILSAAAKSSSKHPPSFISQEDRPIFEKYQSDSFEVQVDIHELLGHGSGKLLTEFTDGFNFDKENPPLGLDGKPVSTYYKVGETWGSKFGQLAGPFEECRAEVIAMFLLTNKKILDIFGFHDVESQDKVIYAGYLQMARAGLLALEYWNPKTGKWGQPHMQARFSIMKTFMKHSTDKNFLKLEMNSTNDDFAIKLDKSLIKTAGHECVKDYLKHLHVYKCSGDVEQGSKYFIDRSTVTPDLASLRDIVLSKRLPRRQFIQSNSYIDDNNKVTLKEYDETPQGMLQSFLDREL	soluble
GLEIHVQIDTKSKLFCNCSTNYLDAEPNTNVCPVCLGLPGAKPLPPNKKAVEVAIMVAKMLGCKIVVDEDIYFQRKHYDYPDLPSGYQRTSTPIGVDGEFMGIGIHEVHLEEDPGQYNPSFGIVDYNRSGTPLIEIVTKPDIKSPEEAREFLKQLMTLFRYLGCLRGEGTMRADVNISIEYMGVQGNRVEVKNVNSIKGVYKVLKYELIRQKNIIKR	not soluble
MRILIASQPIAGHVLPLREIARELARRGHELRWYTGRKFRPQVEAAGAVWEGFVHARDYDDANFDAAFPGRSARRGLAQLLFDLRHVFVGQMEGQFYDLRDLERRWRPDVVLADQTVGAALLREELGGPPVALLGVLPLGIASRDTAPFGLGLAPLGGAAGQLRNRALQVLTERVVFRGISAQLADLCTWLGLPARSFAPPVAPSLMLQPSVPRLEYLRRDLPPQVRFIGPLVLPAGEFTPPAWWNDILTAERPVVLVTQGTLATRPEQLLRPALAALADEDVLVVAAGVAPERLGPLPANARAAAFVPFTALLPHVAVSLTNGGYGGTVQALSHGVPCVVAGRSEDKAEVAARVAYSGAGLNLGTATPSPARIRAAVRRVLREPAFREQAGELGHELRQHDAPREAADWLETLGGKKLEHHHHHH	not soluble
MSLRDIAIGASLELSGPTQSIGTAYKKALELQVDSINEQGGVLGGRKLRLVVKDNQTKPAQNITNVNDLINNDHVVAVITGGCSACTVPVTSIVEKRKVPLISLASATAITDPVAERQYTFKISPNPAQDAEVLLADLKKKGVKSVGLLNVDNPYGQEGRAAVLAQAKKAGIEVTGTQQFGQEDKDMSVQAKRLVDDRPEAVVVWAVMPAAGIIAKNLRDAEFDGGVYLDAGAGAELFVKGAQGAAEGVHMVFPRVLAIGDVTSGGDSVRKQKQWVARYTDRYQDYSGFASFAADAALMLRDAIAKSGSTDGAELRDTIETIGFDGVSGPIRNSAKEHSGLQPESLGVLVVRDGDWHLANEGHHHHHH	soluble
MKQILCTLDYELYGNGTGDVFEHIIKPTEELLAIARRHGIKYTIFFEVVEFWYLKREWERGNKMGYTEDPISAMEQQLREAYLQGHDVQLHLHPQWIGAVHQDGQWRLDLSNWCLGRYQGKGEYSLLSLLKRGKETIEEIIRPVDPHYSCIALRAGGYNAQPSEEIVRAMRQVGLKVDSSIYPGGFETGALSNYDYSSVAPDLGHWYVEDRLEYSAHGATDILELPIVAFPIRRLQKYLSLDRIKALFQNRKSAADTYSAKTANKGGIWGKISYFVELEWQTWDFCLFSKNLHRRFLKRVESQRGRKEFVLVGHPKSFVSGESFNYLIGQLKSSYQFLSMTELYDQRLKIGTKKGVKDTHKPETPAPEGPSPEGPEAGL	not soluble
MSLSQLFIVYLGGSAPKANIELHDVQFVIADNIEGTYEQLRQNWFGTVKDLHLDSYKAVKGADGYQISIQDKPQNSDKKLYFVNLGGYDASKLNELHEFALFVAADNTEAKEKAKQSLLKNSLHQHKDNLMEVDDCLELSKVDGKYIHLTPSDKEYDLKPYWFGYRVIGEGHHHHHH	soluble
MGHHHHHHSHEELGLKVGLEIHRQLDTKKLFSPVPTKFSDEVDFTFQRRLRPTMSELGEVDPAALEEFKKGRVFIYEGNYQLTDLVYMDEEPPRGPDKEALEVALQIAYLLNAKPVDEVYYMRKIVIDGSNVSGFQRTAIIATDGKVETPWGTVGIPTICLEEDAARIIERKEKEVIYRLDRLGVPLVEISTTPDIHHPEQAKVVAKFIGDALRATRKVKRGLGTIRQDLNVSIKGGARIEIKGVQELDMIPLIIEREVERQLNLLKIR	not soluble
MNRLPNIAKPPQKSNQRKEKAPPEVPALIADKDRGTYYEKGRFLGKGGFAHCYELTNRATREVVAGKVVPKSMLVKQYQRDKMTQEVQIHRELGHINIVKLFNFFEDNLNVYITLELCARRSLMELHKRRKAVTEPEARYFTHQIVDGVLYLHDLNIIHRDMKLGNLFLNDDLVVKIGDFGLATTVNGDERKKTLCGTPNYIAPEVLNKAGHSFEVDIWAVGCILYILLFGQPPFESKSLEETYSRIRHNNYTIPSIATQPAASLIRKMLDPEPTRRPTAKQVQRDGFFKSGFMPTRLPVSCLTMVPKFGGHETSMMEENVAPRGVDARSQRPLNGRAGLSALPQHIVSNNADRERAQQQAAEATFREPEDAYLSQLFHQVAVLLEQRIPGLEEEEAALDGYQSPECLPVFWISKWVDYSDKYGIGYQLCDNSVGVLFNDNSRIMLDQAGNELTYIEKSNKEHYFSMHSGEMPGLLNKKVTLLKYFRSYMNDHLVKAGEGSEQRAGDDLARLPTLRVWFRTKSAIVLHLSNGTVQINFFNDHVKMMMCPLMQAVTFIDQNKRMLTYKLNNLQRNGCPEKFLHRLKYAKTMIERLMSDANVVSQNPARQPDMPRSMAAARSASAGSRGPNQAASHLPQSASGSNIHPRR	not soluble
MGSDKIHHHHHHMIRMIRKFKVKGLRSPSLLIDMILNDTEEGILVVETDGEEQIKDIEKLLKKYNLKYEVDGNVVKIYVGEIKADKTINVVGATCPGPIMMVSDMLSKMKNGEILEIICGKNSLTDLTEGLKGMGNEIIKVEDKGDGTYRILVKKGEKKEEKAAVTKIDELFIINTTGTGNAEKAYATFMMADVALKMNLKPTIFLMMDGASLALKGECDRVKHPAFPKLGDLVRDILSKGVKIYVCELSAEFRGINEKNLEEGFEIAGAPTFLNYLSKPNVRPVWL	not soluble
QAKPGGKEDSVLYQLMRARVALIYEETPGIAAKRFRAQLVENPKSEPARYGLAIAQIKGGQLNEARESLKPLLEKSPNDITYNLTQIDLDITNNRLADAQQRVDRMLTLYPTSYPLNDVRIDVLLKQNRTAEAEKSLEALLKTRPDDPDIWYVVAETRG	not soluble
MLEFEQGFNHLATLKVIGVGGGGNNAVNRMIDHGMNNVEFIAINTDGQALNLSKAESKIQIGEKLTRGLGAGANPEIGKKAAEESREQIEDAIQGADMVFVTSGMGGGTGTGAAPVVAKIAKEMGALTVGVVTRPFSFEGRKRQTQAAAGVEAMKAAVDTLIVIPNDRLLDIVDKSTPMMEAFKEADNVLRQGVQGISDLIAVSGEVNLDFADVKTIMSNQGSALMGIGVSSGENRAVEAAKKAISSPLLETSIVGAQGVLMNITGGESLSLFEAQEAADIVQDAADEDVNMIFGTVINPELQDEIVVTVIATGFDDKPTSHGRKSGSTGFGTSVNTSSNATSKDESFTSNSSNAQATDSVSERTHTTKEDDIPSFIRNREERRSRRTRR	not soluble
MNMLEKVQSQLEHLSKSERKVADVILAAPGRSIHLSIAMLAQEANVSEPTVNRFCRSMNTRGFPDFKLHLAQSLANGTPYVNRNVDEDDSVEAYTGKIFESAMASLDHVRQSLDKSAVNRAVDLLTQAKKIAFFGLGSSAAVAHDAMNKFFRFNVPVIYSDDIVLQRMSCMNCSDDDVVVLISHTGRTKSLVELAQLARENDAMVIALTSAGTPLAREATLAITLDVPEDTDIYMPMVSRLAQLTVIDVLATGFTLRRGAKFRDNLKRVKEALKESRFDKELLIKSDDR	not soluble
MGSDKIHHHHHHMGIVGLPNAGKSSFFNFLTDNSVPAESFPFCTIEPNVGILVVPDERIEILAKNEGSKKVVHPFVEVVDIAGLVKGASKGEGLGNQFLDHISKVDVIAHVVRLFEDGRVSHPYQNVDPKRDIEIVETELILKDLETVQKRLEKRMKVARTGDKEAKREVELLQNLREFLSQGKKASKFPRHDRFEEEVIESLFLLTDKPQILVFNVDELDEEKRKLIEEIVKEKDEEYIIINVKLEEELKFLPEEEAEVFRREYNLFGDKRKEFFEKVLKLLNLIRFLTATQNEARSWTIKKGSTAYEAAGLIHSDIQKGFIKVEVIPFERYVEFGSLKKAREAGAVETHGKDYIVREGDVIHFLFRA	not soluble
MAIVNATDQTFAAETKDGLTLVDFWAPWCGPCRMIAPVLEELDREMGDKVKIVKVNVDENQETASKFGVMSIPTLLVFKNGELVDKAIGYQPKEALVQLVGKHVS	soluble
